According to patent US6342348:
One block for each binder: values may come before it.

Tests used:
[1] = biological target: T1, rat NTNRα, endogenous, on embryonic rat spinal motoneurons (rat); test: cell-based or functional assay
T1 sequence (chain, GPI-linked): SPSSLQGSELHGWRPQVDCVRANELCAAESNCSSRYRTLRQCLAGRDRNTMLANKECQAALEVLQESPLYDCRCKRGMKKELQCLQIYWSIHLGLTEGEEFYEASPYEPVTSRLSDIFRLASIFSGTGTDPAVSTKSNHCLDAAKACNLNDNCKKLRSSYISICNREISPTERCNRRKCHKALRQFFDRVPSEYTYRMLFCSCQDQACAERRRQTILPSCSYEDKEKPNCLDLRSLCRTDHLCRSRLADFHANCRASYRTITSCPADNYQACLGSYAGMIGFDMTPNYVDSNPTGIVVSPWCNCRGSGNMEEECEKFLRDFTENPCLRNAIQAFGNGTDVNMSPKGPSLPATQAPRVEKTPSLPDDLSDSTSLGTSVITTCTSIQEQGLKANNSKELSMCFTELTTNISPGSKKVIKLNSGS

[2] = biological target: T2, recombinant soluble rat GDNFRα (rat) (UniProt Q62997); test: binding experiments with biotinylated ligand (format not described)
T2 sequence (looked up): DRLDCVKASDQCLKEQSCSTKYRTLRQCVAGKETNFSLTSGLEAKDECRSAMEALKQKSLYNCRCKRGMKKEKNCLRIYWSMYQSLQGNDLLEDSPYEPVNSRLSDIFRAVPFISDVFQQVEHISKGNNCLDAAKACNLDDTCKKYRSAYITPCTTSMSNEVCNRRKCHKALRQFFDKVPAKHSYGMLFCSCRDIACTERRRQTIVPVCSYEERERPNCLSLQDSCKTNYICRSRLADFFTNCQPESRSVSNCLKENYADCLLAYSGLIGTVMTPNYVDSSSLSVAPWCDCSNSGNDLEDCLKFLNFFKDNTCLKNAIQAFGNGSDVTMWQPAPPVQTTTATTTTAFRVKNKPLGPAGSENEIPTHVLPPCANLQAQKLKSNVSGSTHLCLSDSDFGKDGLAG

[3] = biological target: T2, recombinant soluble rat GDNFRα (rat); test: displacement of labelled rGDNF from soluble GDNFRα by unlabeled NTN (10 nm)
[4] = biological target: rat NTNRα-IgG fusion protein (soluble rNTNRα) (rat); test: binding experiments with biotinylated ligand (format not described); 'and vice versa'

Kd [2]: > 1000 µM
Kd [3]: > 0.001 µM
B1: Neurturin (NTN), species not stated (ligand, UniProt Q99748 96-197, looked up, species assumed)
Neurturin: ARLGARPCGLRELEVRVSELGLGYASDETVLFRYCAGACEAAARVYDLGLRRLRQRRRLRRERVRAQPCCRPTAYEDEVSFLDAHSRYHTVHELSARECACV
decrease in survival response of embryonic rat spinal motoneurons to NTN after PIPLC treatment [1]: 50 to 90%

Kd [4]: > 1000 µM
B2: GDNF, species not stated (ligand, UniProt P39905 78-211, looked up, species assumed)
Glial cell line-derived neurotrophic factor: SPDKQMAVLPRRERNRQAAAANPENSRGKGRRGQRGKNRGCVLTAIHLNVTDLGLGYETKEELIFRYCSGSCDAAETTYDKILKNLSRNRRLVSDKVGQACCRPIAFDDDLSFLDDNLVYHILRKHSAKRCGCI
